B1: His6-Ydj1 (natural protein, S. cerevisiae, UniProt P25491 1-409, looked up)
chain: MVKETKFYDILGVPVTATDVEIKKAYRKCALKYHPDKNPSEEAAEKFKEASAAYEILSDPEKRDIYDQFGEDGLSGAGGAGGFPGGGFGFGDDIFSQFFGAGGAQRPRGPQRGKDIKHEISASLEELYKGRTAKLALNKQILCKECEGRGGKKGAVKKCTSCNGQGIKFVTRQMGPMIQRFQTECDVCHGTGDIIDPKDRCKSCNGKKVENERKILEVHVEPGMKDGQRIVFKGEADQAPDVIPGDVVFIVSERPHKSFKRDGDDLVYEAEIDLLTAIAGGEFALEHVSGDWLKVGIVPGEVIAPGMRKVIEGKGMPIPKYGGYGNLIIKFTIKFPENHFTSEENLKKLEEILPPRIVPAIPKKATVDECVLADFDPAKYNRTRASRGGANYDSDEEEQGGEGVQCASQ
notes: Ydj1, Hsp40 co-chaperone of S. cerevisiae; His6 is named and used for capture in the pull-down; also called Hsp40
B2: Ssa1-D158N, purified (natural protein)
chain: not shown
notes: Ssa1, cytosolic Hsp70 of S. cerevisiae, with D158N; the methods say that the tag was removed; not shown: His6, N-terminal, cleaved
B3: Ssa1-T175N, purified (natural protein)
chain: not shown
notes: Ssa1, cytosolic Hsp70 of S. cerevisiae, with T175N; the methods say that the tag was removed; not shown: His6, N-terminal, cleaved
B4: Ssa1 (wt), purified (natural protein)
chain: not shown
notes: Ssa1, cytosolic Hsp70 of S. cerevisiae; the methods say that the tag was removed; also called wt-Ssa1; wt Ssa1; not shown: His6, N-terminal, cleaved

Key:
[1] = target: B2; test: BLI; Ydj1 (0.75 uM) immobilised on the biosensor, Ssa Hsp70 at varying concentrations as analyte, with 5 mM ATP; conditions: both partners purified
[2] = target: B3; test: as above; conditions: both partners purified
[3] = target: B4; test: BLI; Ssa1, Ssa2, Ssa3 and Ssa4 with Ydj1; set-up not told here (as in ref. 26)
[4] = target: T1, Hsp82, purified (S. cerevisiae, UniProt P02829 1-709); test: BLI; Octet K2, 30°C; Hsp82 immobilised on AR2G biosensors by amine coupling; Hsp70 1.0 uM as analyte in 25 mM Hepes pH 7.4, 150 mM NaCl, 20 mM MgCl2, 20 mM KCl, 0.1% Tween-20, 0.05% Triton X-100, 1 mM ATP; association and dissociation 200 s each; conditions: both partners purified
T1 construct: Hsp82, Hsp90 isoform of S. cerevisiae; also called Hsp90; Hsp82 isoform of Hsp90; source: plasmid pET29bHTV-HSP82

[5] = target: B1; test: cell-based or functional assay
[6] = target: T1, Hsp82, purified; test: cell-based or functional assay

T1 sequence (P02829 whole entry, canonical isoform): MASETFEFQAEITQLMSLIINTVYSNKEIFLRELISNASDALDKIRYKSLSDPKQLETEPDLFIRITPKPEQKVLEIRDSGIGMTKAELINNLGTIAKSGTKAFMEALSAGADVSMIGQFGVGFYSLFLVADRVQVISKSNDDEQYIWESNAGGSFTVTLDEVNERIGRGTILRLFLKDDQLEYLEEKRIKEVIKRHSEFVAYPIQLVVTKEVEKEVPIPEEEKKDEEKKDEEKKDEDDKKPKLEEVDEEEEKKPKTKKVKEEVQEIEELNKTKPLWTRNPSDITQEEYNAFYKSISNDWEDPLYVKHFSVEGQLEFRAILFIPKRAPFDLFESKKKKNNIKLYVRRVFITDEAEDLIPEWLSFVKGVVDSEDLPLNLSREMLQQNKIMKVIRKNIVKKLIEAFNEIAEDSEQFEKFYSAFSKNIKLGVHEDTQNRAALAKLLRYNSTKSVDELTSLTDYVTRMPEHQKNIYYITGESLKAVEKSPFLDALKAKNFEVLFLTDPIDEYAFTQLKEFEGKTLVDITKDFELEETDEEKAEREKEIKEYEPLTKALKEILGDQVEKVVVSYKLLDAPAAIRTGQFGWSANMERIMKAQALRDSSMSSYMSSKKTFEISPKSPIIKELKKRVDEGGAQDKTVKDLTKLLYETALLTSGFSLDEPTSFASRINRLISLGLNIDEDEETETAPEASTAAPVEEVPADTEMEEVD

Row | Binder | binding result [1] | binding result [2] | binding result [3] | fold by which the BLI response of wt-Ssa1 at equilibrium is higher than that of this mutant [4] [fold] | refolding of heat-denatured luciferase by Hsp70 with Ydj1, fold, time course to 30 min (wt Ssa1:Ydj1: 30-fold) [5] [fold] | fold increase in luciferase refolding upon addition of Hsp90 (Hsp82) and Sti1 to a reaction with Ydj1 and Hsp70 (wt Ssa1: 4) [6] [fold] | binding result [4]
1 | B1 | binds | binds | binds |  |  |  | 
2 | B2 |  |  |  | ~2 | ~60 | 2 | 
3 | B3 |  |  |  | ~4 | ~60 | 2 | 
4 | B4 |  |  |  |  |  |  | binds

— paper PMC9645627, “Ydj1 interaction at nucleotide-binding-domain of yeast Ssa1 impacts Hsp90 collaboration and client maturation” (PLOS Genetics, 2022)
